From patent US20190127446A1
pKd: −log10 of the molar value.

How the values were obtained:
[1] = molecular target: soluble version of the extracellular domain of gp75; assay: SPR; soluble gp75 extracellular domain injected over immobilized antibody
[2] = molecular target: soluble mouse Fcγ-receptor IIB (mouse) (UniProt P08101); assay: SPR
[3] = molecular target: soluble mouse Fcγ-receptor III (mouse) (UniProt P08508); assay: ratio of SPR KA values
[4] = molecular target: soluble mouse Fcγ-receptor IIB (mouse) (UniProt P08101); assay: SPR (Biacore), soluble receptor injected over immobilized antibody, 1:1 Langmuir
[5] = molecular target: soluble mouse Fcγ-receptor III (mouse) (UniProt P08508); assay: as above
[6] = molecular target: soluble mouse Fcγ-receptor IV (mouse); assay: SPR
[7] = molecular target: soluble mouse Fcγ-receptor IV (mouse); assay: ratio of SPR KA values
[8] = molecular target: soluble mouse Fcγ-receptor IV (mouse); assay: SPR (Biacore), soluble receptor injected over immobilized antibody, 1:1 Langmuir
[9] = molecular target: soluble mouse Fcγ-receptor I (mouse) (UniProt P26151); assay: as above
[10] = molecular target: soluble human Fcγ-receptor IIB (human) (UniProt P31994); assay: SPR, soluble human Fcγ-receptor and human IgG isotype
[11] = molecular target: soluble human Fcγ-receptor IIIA (158F-allele) (human) (UniProt P08637); assay: as above
[12] = molecular target: soluble human Fcγ-receptor IIA (131H-allele) (human) (UniProt P12318); assay: as above
[13] = molecular target: soluble human Fcγ-receptor IIIA (158F-allele) (human) (UniProt P08637); assay: ratio of SPR KA values
[14] = molecular target: soluble human Fcγ-receptor IIA (131H-allele) (human) (UniProt P12318); assay: ratio of SPR KA values

Sequence of soluble mouse Fcγ-receptor III (mouse) (P08508 other isoform, or with tags, fused parts or gaps): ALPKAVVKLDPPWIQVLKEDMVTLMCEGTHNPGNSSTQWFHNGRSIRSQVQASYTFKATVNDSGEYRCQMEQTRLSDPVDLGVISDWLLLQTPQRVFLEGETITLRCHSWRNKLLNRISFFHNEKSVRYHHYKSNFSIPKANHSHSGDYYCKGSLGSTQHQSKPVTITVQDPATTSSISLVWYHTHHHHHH
Sequence of soluble human Fcγ-receptor IIB (human) (P31994 43-217): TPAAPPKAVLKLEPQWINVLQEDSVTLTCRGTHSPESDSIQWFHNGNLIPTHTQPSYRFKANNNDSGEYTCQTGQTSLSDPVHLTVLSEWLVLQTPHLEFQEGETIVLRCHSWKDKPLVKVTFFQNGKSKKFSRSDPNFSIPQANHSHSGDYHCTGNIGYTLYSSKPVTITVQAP
Sequence of soluble human Fcγ-receptor IIA (131H-allele) (human) (P12318 34-217): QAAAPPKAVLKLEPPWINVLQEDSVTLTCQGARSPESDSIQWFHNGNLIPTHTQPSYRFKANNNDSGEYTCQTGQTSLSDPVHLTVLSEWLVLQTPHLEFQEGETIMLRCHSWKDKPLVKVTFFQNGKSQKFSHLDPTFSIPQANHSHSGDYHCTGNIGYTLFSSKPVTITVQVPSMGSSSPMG
Sequence of soluble mouse Fcγ-receptor IIB (mouse) (P08101 other isoform, or with tags, fused parts or gaps): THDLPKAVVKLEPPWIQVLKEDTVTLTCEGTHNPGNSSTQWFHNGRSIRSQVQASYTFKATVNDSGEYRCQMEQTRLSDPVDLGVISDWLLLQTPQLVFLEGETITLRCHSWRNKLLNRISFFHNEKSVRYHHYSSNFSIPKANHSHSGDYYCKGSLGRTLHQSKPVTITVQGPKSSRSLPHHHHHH
Sequence of soluble human Fcγ-receptor IIIA (158F-allele) (human) (P08637 17-208): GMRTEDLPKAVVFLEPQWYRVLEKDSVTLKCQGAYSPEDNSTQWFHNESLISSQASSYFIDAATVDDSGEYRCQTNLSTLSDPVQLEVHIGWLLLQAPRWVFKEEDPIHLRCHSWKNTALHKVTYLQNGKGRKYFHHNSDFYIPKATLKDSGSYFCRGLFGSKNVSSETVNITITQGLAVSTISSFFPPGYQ
Sequence of soluble mouse Fcγ-receptor I (mouse) (P26151 other isoform, or with tags, fused parts or gaps): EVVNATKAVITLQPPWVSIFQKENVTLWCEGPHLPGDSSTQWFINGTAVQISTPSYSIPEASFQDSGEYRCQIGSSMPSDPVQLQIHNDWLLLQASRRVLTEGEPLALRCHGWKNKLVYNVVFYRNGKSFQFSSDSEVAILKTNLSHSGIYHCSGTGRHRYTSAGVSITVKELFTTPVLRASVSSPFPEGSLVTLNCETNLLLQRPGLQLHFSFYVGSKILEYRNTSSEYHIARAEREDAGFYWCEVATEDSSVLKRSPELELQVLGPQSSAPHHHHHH

Substance	Ka [1] [M⁻¹]	pKd [1]	Ka [4] [M⁻¹]	Ka [5] [M⁻¹]	A/I (ratio of sFcγRIV to sFcγRIIB) [7]	Ka [8] [M⁻¹]	Ka [10] [M⁻¹]	Ka [11] [M⁻¹]	Ka [12] [M⁻¹]	A/I IIIA/IIB (ratio of affinity to that for FcγRIIB) [13]	A/I IIA/IIB (ratio of affinity to that for FcγRIIB) [14]	also measured
TA99-IgG1 (fucose-containing) (antibody)	2.7e+09	9.42	3.33e+06	310000	–	–	–	–	–	–	–	fold higher affinity than to FcγRIII [2]: 10 fold; A/I (ratio of affinity for sFcγRIII to that for FcγRIIB) [3]: 0.1
TA99-IgG1 deficient in fucose (antibody)	–	–	1.32e+06	510000	–	–	–	–	–	–	–	A/I (ratio of affinity for sFcγRIII to that for FcγRIIB) [3]: 0.4
TA99-IgG2a (fucose-containing) (antibody)	1.6e+09	9.21	420000	680000	69	2.9e+07	–	–	–	–	–	fold higher affinity than to FcγRIIB [6]: 10 fold; Ka [9]: 1.6e+08 M⁻¹
TA99-IgG2a deficient in fucose (antibody)	–	–	3.34e+06	1.54e+06	92	3.06e+08	–	–	–	–	–	Ka [9]: 1.8e+08 M⁻¹
TA99-IgG2b (fucose-containing) (antibody)	1.8e+09	9.24	2.23e+06	640000	7	1.7e+07	–	–	–	–	–	fold higher affinity than to FcγRIIB [6]: 10 fold
TA99-IgG2b deficient in fucose (antibody)	–	–	1e+07	1.06e+06	20	2.03e+08	–	–	–	–	–	–
TA99-IgG3 (antibody)	1.5e+09	9.18	–	–	–	–	–	–	–	–	–	–
human IgG1 antibody isotype	–	–	–	–	–	–	78000	430000	250000	5.5	3.1	–
human IgG1 antibody isotype lacking fucose	–	–	–	–	–	–	78000	6e+06	240000	76	3.1	–
human IgG2 antibody isotype	–	–	–	–	–	–	30000	14000	140000	0.4	4.5	–
human IgG2 antibody isotype lacking fucose	–	–	–	–	–	–	26000	140000	130000	5.7	5.3	–
human IgG4 antibody isotype	–	–	–	–	–	–	48000	–	35000	–	0.7	–
